B1: Ephrin type-A receptor 2 (Mus musculus), Q03145 (parent)
chain: MELRAVGFCLALLWGCALAAAAAQGKEVVLLDFAAMKGELGWLTHPYGKGWDLMQNIMDDMPIYMYSVCNVVSGDQDNWLRTNWVYREEAERIFIELKFTVRDCNSFPGGASSCKETFNLYYAESDVDYGTNFQKRQFTKIDTIAPDEITVSSDFEARNVKLNVEERMVGPLTRKGFYLAFQDIGACVALLSVRVYYKKCPEMLQSLARFPETIAVAVSDTQPLATVAGTCVDHAVVPYGGEGPLMHCTVDGEWLVPIGQCLCQEGYEKVEDACRACSPGFFKSEASESPCLECPEHTLPSTEGATSCQCEEGYFRAPEDPLSMSCTRPPSAPNYLTAIGMGAKVELRWTAPKDTGGRQDIVYSVTCEQCWPESGECGPCEASVRYSEPPHALTRTSVTVSDLEPHMNYTFAVEARNGVSGLVTSRSFRTASVSINQTEPPKVRLEDRSTTSLSVTWSIPVSQQSRVWKYEVTYRKKGDANSYNVRRTEGFSVTLDDLAPDTTYLVQVQALTQEGQGAGSKVHEFQTLSTEGSANMAVIGGVAVGVVLLLVLAGVGLFIHRRRRNLRARQSSEDVRFSKSEQLKPLKTYVDPHTYEDPNQAVLKFTTEIHPSCVARQKVIGAGEFGEVYKGTLKASSGKKEIPVAIKTLKAGYTEKQRVDFLSEASIMGQFSHHNIIRLEGVVSKYKPMMIITEYMENGALDKFLREKDGEFSVLQLVGMLRGIASGMKYLANMNYVHRDLAARNILVNSNLVCKVSDFGLSRVLEDDPEATYTTSGGKIPIRWTAPEAISYRKFTSASDVWSYGIVMWEVMTYGERPYWELSNHEVMKAINDGFRLPTPMDCPSAIYQLMMQCWQQERSRRPKFADIVSILDKLIRAPDSLKTLADFDPRVSIRLPSTSGSEGVPFRTVSEWLESIKMQQYTEHFMVAGYTAIEKVVQMSNEDIKRIGVRLPGHQKRIAYSLLGLKDQVNTVGIPI

Variants of: B1
Details: with epha4_mouse Epha4, Q03137
Chain of epha4_mouse Epha4, Q03137 (Q03137 whole entry): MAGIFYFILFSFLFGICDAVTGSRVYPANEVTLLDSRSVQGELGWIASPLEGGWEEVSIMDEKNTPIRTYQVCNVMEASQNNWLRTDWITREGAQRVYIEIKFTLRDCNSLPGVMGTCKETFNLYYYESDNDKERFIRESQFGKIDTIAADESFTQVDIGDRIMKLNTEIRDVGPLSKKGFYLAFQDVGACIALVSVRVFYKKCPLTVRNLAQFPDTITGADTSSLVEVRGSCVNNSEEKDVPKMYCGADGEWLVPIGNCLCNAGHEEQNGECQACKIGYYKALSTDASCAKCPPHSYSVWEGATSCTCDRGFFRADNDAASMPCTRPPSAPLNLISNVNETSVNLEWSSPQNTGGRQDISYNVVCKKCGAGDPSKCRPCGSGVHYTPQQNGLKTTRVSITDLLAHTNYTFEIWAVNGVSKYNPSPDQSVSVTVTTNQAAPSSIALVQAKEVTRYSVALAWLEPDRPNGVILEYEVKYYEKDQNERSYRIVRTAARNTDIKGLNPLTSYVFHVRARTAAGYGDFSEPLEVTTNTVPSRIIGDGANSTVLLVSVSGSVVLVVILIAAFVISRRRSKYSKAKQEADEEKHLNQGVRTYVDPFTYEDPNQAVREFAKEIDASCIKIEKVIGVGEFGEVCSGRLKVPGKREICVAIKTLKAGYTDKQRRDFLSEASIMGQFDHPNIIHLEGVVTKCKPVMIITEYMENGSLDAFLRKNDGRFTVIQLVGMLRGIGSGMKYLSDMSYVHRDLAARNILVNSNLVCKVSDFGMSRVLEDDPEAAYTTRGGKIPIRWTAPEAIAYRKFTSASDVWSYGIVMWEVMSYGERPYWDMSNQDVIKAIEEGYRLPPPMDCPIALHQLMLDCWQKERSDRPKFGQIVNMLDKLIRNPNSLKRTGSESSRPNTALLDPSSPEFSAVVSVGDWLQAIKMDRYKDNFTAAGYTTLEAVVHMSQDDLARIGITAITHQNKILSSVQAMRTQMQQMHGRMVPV

Variant	effect of a mutation on the interaction
Y595F	disrupting interaction

Variants of: B1
Details: with epha4_mouse Epha4, Q03137
Remark: another data set of the same source

Variant	effect of a mutation on the interaction
Y589F	disrupting interaction
